1 molecule from patent US20160168253A1 (Hoffmann-La Roche, published 2016) can be followed below.

This assay deals with T1, Aβ1-40 fibers (human).
T1 construct: Coated on Maxisorp plates for 3 days at 37 C to produce fibrillar Abeta; also called fibrillar Aβ; fibrillar Abeta
The experiment in a line: ELISA on plate-coated fibrillar Aβ(1-40), detection with anti-human-IgG-HRP. As for the experimental part:
Binding of fusion polypeptide to fibrillar Aβ was measured by an ELISA assay. Briefly, […] was coated at 7 μg/mL in PBS onto Maxisorp plates for 3 days at 37° C. to produce fibrillar Abeta, then dried for 3 h at RT. The plate was blocked with 1% Crotein C and 0.1% RSA in PBS (blocking buffer) for 1 h at RT, then washed once with wash buffer. Fusion polypeptides or controls were added at concentrations up to 100 nM in blocking buffer and incubated at 4° C. overnight. After 4 wash steps, constructs were detected by addition of anti-human-IgG-HRP (Jackson Immunoresearch) at 1:10,000 dilution in blocking buffer […], followed by 6 washes and incubation in TMB (Sigma). Absorbance was read out at 450 nm after stopping color development with 1 N HCl (see FIG. 1).

B1: Mab 31 = Gantenerumab (INN) (antibody, human IgG1, V domains shown)
VH: QVELVESGGGLVQPGGSLRLSCAASGFTFSSYAMSWVRQAPGKGLEWVSAINASGTRTYYADSVKGRFTISRDNSKNTLYLQMNSLRAEDTAVYYCARGKGNTHKPYGYVRYFDVWGQGTLVTVSS
VL: DIVLTQSPATLSLSPGERATLSCRASQSVSSSYLAWYQQKPGQAPRLLIYGASSRATGVPARFSGSGSGTDFTLTISSLEPEDFATYYCLQIYNMPITFGQGTKVEIKR
notes: Human IgG1 with kappa light chain; Id; No. 13; also called mAb31(HEK); naked anti-Aβ monoclonal antibody
For B1, the binding result is on record as “binds”.
